Data on two molecules can be found in article PMC4015496 (Genes & Development, 2014).

The series “SEC” concerns the molecule itself. As to the kind of experiment: SEC. On the technique in general: Size exclusion chromatography separates by hydrodynamic size, large species first.
In series [1] the target is T1, CTCFwt, full length, GST tag removed (human), P49711.
T1 chain: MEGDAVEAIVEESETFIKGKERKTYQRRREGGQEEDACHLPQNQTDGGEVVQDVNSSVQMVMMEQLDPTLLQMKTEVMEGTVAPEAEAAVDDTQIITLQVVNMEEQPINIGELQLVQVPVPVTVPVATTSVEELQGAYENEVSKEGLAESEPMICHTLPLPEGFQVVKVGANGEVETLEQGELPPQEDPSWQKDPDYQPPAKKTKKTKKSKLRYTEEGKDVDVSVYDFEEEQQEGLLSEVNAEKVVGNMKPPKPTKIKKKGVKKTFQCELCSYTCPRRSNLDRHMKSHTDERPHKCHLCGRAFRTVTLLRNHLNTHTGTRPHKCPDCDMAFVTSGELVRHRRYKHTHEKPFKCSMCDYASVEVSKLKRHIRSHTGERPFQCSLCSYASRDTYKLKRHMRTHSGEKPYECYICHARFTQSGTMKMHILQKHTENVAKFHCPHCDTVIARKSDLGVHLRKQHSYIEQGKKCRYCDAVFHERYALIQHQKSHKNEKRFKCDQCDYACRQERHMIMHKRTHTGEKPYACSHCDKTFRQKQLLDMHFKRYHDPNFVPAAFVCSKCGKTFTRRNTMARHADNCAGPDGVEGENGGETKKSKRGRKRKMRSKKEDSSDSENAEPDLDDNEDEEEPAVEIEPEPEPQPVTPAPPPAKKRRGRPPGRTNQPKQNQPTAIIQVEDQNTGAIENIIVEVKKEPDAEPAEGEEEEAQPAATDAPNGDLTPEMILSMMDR
As to the kind of experiment: SEC. Particulars: remark: other sources report otherwise.

A word on the stoichiometry N: it is the number of molecules, sites or subunits per partner or assembly.

B1: RBR fragment of CTCF (purified, used in gel filtration) (domain or fragment, human, UniProt P49711 520-727, looked up)
chain: EKPYACSHCDKTFRQKQLLDMHFKRYHDPNFVPAAFVCSKCGKTFTRRNTMARHADNCAGPDGVEGENGGETKKSKRGRKRKMRSKKEDSSDSENAEPDLDDNEDEEEPAVEIEPEPEPQPVTPAPPPAKKRRGRPPGRTNQPKQNQPTAIIQVEDQNTGAIENIIVEVKKEPDAEPAEGEEEEAQPAATDAPNGDLTPEMILSMMDR
As for B1, the binding result in “SEC” is on record as “binds”.

B2: CTCFwt, full length, GST tag removed, P49711 1-727 (natural protein)
chain: MEGDAVEAIVEESETFIKGKERKTYQRRREGGQEEDACHLPQNQTDGGEVVQDVNSSVQMVMMEQLDPTLLQMKTEVMEGTVAPEAEAAVDDTQIITLQVVNMEEQPINIGELQLVQVPVPVTVPVATTSVEELQGAYENEVSKEGLAESEPMICHTLPLPEGFQVVKVGANGEVETLEQGELPPQEDPSWQKDPDYQPPAKKTKKTKKSKLRYTEEGKDVDVSVYDFEEEQQEGLLSEVNAEKVVGNMKPPKPTKIKKKGVKKTFQCELCSYTCPRRSNLDRHMKSHTDERPHKCHLCGRAFRTVTLLRNHLNTHTGTRPHKCPDCDMAFVTSGELVRHRRYKHTHEKPFKCSMCDYASVEVSKLKRHIRSHTGERPFQCSLCSYASRDTYKLKRHMRTHSGEKPYECYICHARFTQSGTMKMHILQKHTENVAKFHCPHCDTVIARKSDLGVHLRKQHSYIEQGKKCRYCDAVFHERYALIQHQKSHKNEKRFKCDQCDYACRQERHMIMHKRTHTGEKPYACSHCDKTFRQKQLLDMHFKRYHDPNFVPAAFVCSKCGKTFTRRNTMARHADNCAGPDGVEGENGGETKKSKRGRKRKMRSKKEDSSDSENAEPDLDDNEDEEEPAVEIEPEPEPQPVTPAPPPAKKRRGRPPGRTNQPKQNQPTAIIQVEDQNTGAIENIIVEVKKEPDAEPAEGEEEEAQPAATDAPNGDLTPEMILSMMDR
In series [1], B2 registered a stoichiometry N of 3.
